{"source": "paper PMC5750462", "about": "(Emerging Microbes & Infections, 2017)", "molecular_target": "the molecule itself", "assay": "BLI; […] (PBS, 0.01% BSA, 0.002% Tween-20); […]"}
{"protein": "recombinant N1-165-domain of wild-type (wt) matrix protein 1 (M1), influenza A virus A/WSN/33 (domain or fragment) MSLLTEVETYVLSIVPSGPLKAEIAQRLEDVFAGKNTDLEVLMEWLKTRPILSPLTKGILGFVFTLTVPSERGLQRRRFVQNALNGNGDPNNMDKAVKLYRKLKREITFHGAKEIALSYSAGALASCMGLIYNRMGAVTTEVAFGLVCATCEQIADSQHRSHRQM", "values": [{"measurement": "binding result", "value": "binds"}]}
